Test results: the supplement of paper PMC10567573
± gives the standard deviation.

Assay: protein stability index of a GFP-peptide fusion (GPS, HEK-293T) (PSI 1-6); higher = more stable
Conditions: c terminus: a fixed tail appended
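Note: 24-mer peptide tiles fused after GFP, lentivirally expressed, FACS-sorted into six equal bins by GFP/DsRed ratio, decoded by Illumina sequencing, PSI is the read-weighted mean bin number.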

| Sequence | protein stability index (treatment: DMSO) | protein stability index (treatment: MLN4924 1 uM, 8 h) |
| --- | --- | --- |
| LGSAGAQYEKYSFRGFPPEDLMPL [P3H4] | 2.87 ± 0.52 | 2.86 ± 0.17 |
| AALCALGKDCFLELAPDFVGDILW [ETS1] | 2.51 ± 0.41 | 2.95 ± 0.77 |
| RGGMGSGGLATGIAGGLAGMGGIQ [KRT18] | 3.61 ± 0.18 | 3.38 ± 0.23 |
| SLCSLLESQSTSLRGSYNSLHDGS [LURAP1L] | 2.8 ± 0.11 | 2.87 ± 0.41 |
| LCPSRAELDRWLYHLEKQTALLGG [PLEKHN1] | 2.53 ± 0.21 | 2.62 ± 0.22 |
| ASSASEPQGLFVEALSVPLSLCVS [CLPTM1] | 2.31 ± 0.2 | 2.25 ± 0.36 |
| MLGKYGSSLEFTELLTLVNRKVSQ [CASP6] | 2.29 ± 0.23 | 2.34 ± 0.43 |
| GEEEAESSISSTSNEQLKVTQEPR [ZMYND11] | 5.59 ± 0.11 | 5.46 ± 0.28 |
| AILYYYQSGGRLRRPVNVPLDMFS [KCNA1] | 2.69 ± 0.84 | 2.29 ± 0.42 |
| FEKHRWPPVWYLKEEDHYQRARKE [RHOBTB2] | 3.26 ± 0.3 | 3.52 ± 0.5 |
| RSEFTLMAKRIGKDLSNTFAKLEK [STX5] | 2.51 ± 0.33 | 2.31 ± 0.33 |
| EPIILPCSHNLCQACARNILVQTP [TRIM9] | 2.45 ± 0.18 | 2.68 ± 0.23 |
| HVFIGDHSGQVTILKLEQENCTLV [WDFY2] | 2.09 ± 0.39 | 2.19 ± 0.19 |
| LESEDWEEDNWDPELMEHTEAESE [TEX19] | 5.59 ± 0.29 | 5.53 ± 0.32 |
| SYLLKSGADKEILTTKGEMPVQLT [ANKRD40] | 3.46 ± 0.38 | 3.55 ± 0.19 |
| PELMEHTEAESEQEGSSGMELSWG [TEX19] | 5.4 ± 0.32 | 5.32 ± 0.35 |
| DITQSIEDDPLLDAQLLPHHSLQA [TMEM192] | 4.15 ± 0.22 | 4.1 ± 0.37 |
| PSAALTTMQLFSKQNPSRQEVTKL [FBXO28] | 4.16 ± 0.37 | 4.37 ± 0.23 |
| SRIAKGGVDHTKMSLHGASGGHER [BTBD10] | 4.5 ± 0.19 | 4.43 ± 0.14 |
| SGTDAEETILNAFKMLDPDGKGKI [MYL5] | 4.51 ± 0.18 | 4.31 ± 0.17 |
| PTEQVNELVALIPHSDQRLRPQRT [TMEM106C] | 4.63 ± 0.12 | 4.75 ± 0.1 |
| GSSDSEEERATRLAELQEQLKAVH [BRD3] | 5.13 ± 0.23 | 5.15 ± 0.27 |

| Sequence | protein stability index (treatment: DMSO) | protein stability index (treatment: MLN4924 1 uM, 8 h) |
| --- | --- | --- |
| ACLLQLAEIQEACCEFLKRQLDPS [KLHL20] | 2.32 ± 0.58 | 2.16 ± 0.053 |
| IYKLEEHEEFFPAFQAFTNDLLEI [CEP70] | 2.43 ± 0.24 | 2.39 ± 0.072 |
| MNDFGIKNMDQVAPVANSYRGTLK [ETS2] | 4.06 ± 0.31 | 4.02 ± 0.26 |
| AKKFRKAVTDLLGRRQRKSEKRRD [WASL] | 3.88 ± 0.52 | 3.89 ± 0.2 |
| FLHVRKATRAMGLLNTLSLAFVGG [TMEM175] | 2.16 ± 0.59 | 1.98 ± 0.35 |
| FRVLCTAPAKYTVFDAEGYVKPQS [MOSPD3] | 2.02 ± 0.35 | 2.19 ± 0.53 |
| RKSLALDIVDEDVKLMMSTLPKSL [MYBL2] | 2.98 ± 0.27 | 2.76 ± 0.29 |
| FYSAEIICAIEYLHSKEIVYRDLK [PRKX] | 2.96 ± 0.76 | 2.51 ± 0.45 |
| LPGPAFESYESMELACPAERSGHV [KLHDC2] | 4.41 ± 0.17 | 4.45 ± 0.33 |
| SLPASSYSQDPVYANGGLNYSYRG [NOL4L] | 3.44 ± 0.12 | 3.62 ± 0.15 |
| VFDAEGYVKPQSCIDIVIRHVAPI [MOSPD3] | 2.19 ± 0.16 | 2.19 ± 0.51 |
| DLKPTGEIPKQVKVKKLKNLKTLD [DENND6A] | 4.24 ± 0.25 | 4.24 ± 0.31 |
| FFVANKYWRYDEYKRSMDPGYPKM [MMP1] | 2.15 ± 0.33 | 2.16 ± 0.33 |
| SDSVIMTGSYNNFFRMFDRNTKRD [PPP2R2B] | 3.55 ± 0.18 | 3.63 ± 0.19 |
| WKALSEFALQSDLDQPAFQQLVSF [ISL2] | 2.21 ± 0.14 | 2.31 ± 0.37 |
| HQSLSLASSPKGTIENILDNDPRD [CDC25A] | 5.3 ± 0.2 | 5.22 ± 0.18 |
| KELIIFRLVAPTEGSLEWDILEVK [WDR41] | 2.22 ± 0.24 | 2.21 ± 0.4 |
| LPVRPQTNALIGGPMPMSMPNVMT [CLINT1] | 3.33 ± 0.11 | 3.38 ± 0.18 |
| YSLMKRQMMSATAQNREPESVEQL [SNX8] | 4.37 ± 0.38 | 4.48 ± 0.19 |
| CKVFGIHKACEVAPLQSVFQGQKT [TRIM63] | 2.81 ± 0.26 | 2.96 ± 0.39 |
| YYTMDPTQHVNNWMKHNVADSQIT [PTPRD] | 2.95 ± 0.31 | 2.93 ± 0.5 |
| EIRDWRGPQLEGEKDWGLEGYVWR [ZSWIM9] | 3 ± 0.56 | 3.29 ± 0.57 |

| Sequence | protein stability index (treatment: DMSO) | protein stability index (treatment: MLN4924 1 uM, 8 h) |
| --- | --- | --- |
| AFPFNMQELVLKVRIQNPSLREND [ANKRD40] | 2.41 ± 0.46 | 2.33 ± 0.41 |
| IWSEVFTVEKPGGKKVAVVLMDTQ [ATL3] | 2.2 ± 0.34 | 2.37 ± 0.39 |
| TRYSVAGLSPYSDYEFRVVAVNNI [PTPRD] | 2.51 ± 0.35 | 2.61 ± 0.37 |
| FEAEPLPENTNRQLLLQFERLVVL [PI4K2A] | 2.12 ± 0.1 | 2.14 ± 0.26 |
| IYLLRRQIRTVIQYQTVRYDILPL [CTDNEP1] | 2.94 ± 0.34 | 2.56 ± 0.51 |
| IQQALTMFPGVLLPLLESCSVRPD [TCF25] | 2.4 ± 0.5 | 3.18 ± 0.58 |
| DVNNLDPDLRSLFSRAGISEAQLT [WAS] | 3.07 ± 0.41 | 3.34 ± 0.48 |
| LLSFKRGSALEEKENKILVKETGY [TNFSF13B] | 3.45 ± 0.38 | 3.31 ± 0.37 |
| VSPGGVKLEISTKEVPVVHTETKT [EPB41L3] | 4.88 ± 0.29 | 5 ± 0.3 |
| VKWLSFHSGYDFGYLIKILTNSNL [CNOT7] | 2.58 ± 0.21 | 2.86 ± 0.69 |
| PTRCLPGHKEEEDGEGAGPGEQGG [ESRRA] | 5.68 ± 0.3 | 5.38 ± 0.26 |
| EWDAMGGKVQDIKAREKDGKGRTA [FSD1] | 5.16 ± 0.21 | 5.35 ± 0.14 |
| LGWAQPCDVWSIGCILFEYYRGFT [CLK3] | 3.31 ± 0.71 | 2.93 ± 1.5 |
| GSLSLSFEREPSTSDLGTTDVQKK [RIPK4] | 5.26 ± 0.45 | 5.31 ± 0.064 |
| PYDGNSSDPENWDRKLHSRPRKLY [BTBD10] | 3.35 ± 0.24 | 3.41 ± 0.34 |
| SGSGSGPGCGSVPGSGSGPGPGSG [SPAG8] | 5.08 ± 0.24 | 5.12 ± 0.12 |
| VTLELSQLSMLPHLADLVSYSIQK [VDR] | 2.86 ± 0.52 | 2.91 ± 0.26 |
| SEEAPGGTELIQTPLASSTDHQTP [HDAC6] | 5.49 ± 0.4 | 5.51 ± 0.34 |
| DHMVRMHLYPADFRFDKPKKSRSP [ZNF511] | 3.42 ± 0.38 | 3.77 ± 0.43 |
| SLELPKAIQDQLPRLQQLLKTLEE [FANCE] | 2.66 ± 0.32 | 2.85 ± 0.24 |
| EDEEEEEGGEGEKEGEGEVGGEAV [TRIM55] | 5.74 ± 0.24 | 5.7 ± 0.27 |
